One molecule from patent US20230272055A1, “ANTI-MUTANT CALRETICULIN (CALR) ANTIBODIES AND USES THEREOF” (Incyte Corporation, priority 2021, published 2023) can be followed below.

This assay has as its system BaF3 cells expressing MPL/mutCALR Type 1. Kind of assay: Example 16 inhibition of cell proliferation, CellTiter-Glo 72 hours. The assay is classed as cell-based. Here is the method: The ability of the five antibodies shown here to inhibit cell proliferation was tested. Inhibition of cell proliferation was assessed using engineered BaF3 cells expressing MPL/mutCALR Type 1. Cells were plated at 5,000 cells per well in RPMI 1640+2% FBS, antibodies were added and incubated for 72 hours, followed by assessment of cell viability using the CellTiter-Glo Luminescent Cell Viability Assay (Promega, Madison, Wis.) and Top Count (Perkin Elmer, Boston, Mass.) or Pherastar (BMG Labtech, Ortenberg, Germany) for luminescence quantification. […] The data shown in FIGS. 21A and 21B were compiled from different experiments.
For orientation: ATP-based viability assays read luminescence as a measure of living cells.

B1: AB4: anti-mutCALR antibody including VH and VL regions of antibody 8B2-H6 from WO2016087514 fused to human constant regions (antibody)
heavy: EVQLKQSGPELVKTGASVKISCKASGYSFTGYYIHWVKQSHGKSLEWIGYISCYNGASSYNQKFKGKATFTVDTSSSTAYMQFNSLTSGDSAVYYCASSMDYWGQGTSVTVSSASTKGPSVFPLAPSKSTSGGTAALGCLVKDYFPEPVTVSWNSGALTSGVHTFPAVLQSSGLYSLSSVVTVPSSSLGTQTYICNVNHKPSNTKVDKKVEPKSCDKTHTCPPCPAPELLGGPSVFLFPPKPKDTLMISRTPEVCVVVDVSHEDPEVKFNWYVDGVEVHNAKTKPREEQYNSTYRVVSVLTVLHQDWLNGKEYKCKVSNKALPAPIEKTISKAKGQPREPQVYTLPPSREEMTKNQVSLTCLVKGFYPSDIAVEWESNGQPNNYKTTPPVLDSDGSFFLYSKLTVDKSRWQQGNVFSCSVMHEALHNHYTQKSLSLSPG
light: DVVMTQTPLTLSVTIGQPASISCKSSQSLLDSDGKTYLNWLLQRPGQSPKRLIYLVSKLDSGVPDRFTGSGSGTDFTLKISRVEAEDLGVYHCWQGTHFPYTFGGGTKLEIKRTVAAPSVFIFPPSDQLKSGTASVVCLLNNFYPREAKVQWKVDNALQSGNSQESVTEQDSKDSTYSLSSTLTLSKADYEKHKVYACEVTHQGLSSPVTKSFNRGEC
On to B1, for which the “inhibition of cell proliferation” value (72 hours, FIG. 21B, Table 16) was “no functional activity”. Also, the “IC50 for anti-mutCALR antibody mediated inhibition of cell proliferation” value (BaF3 cells expressing MPL/mutCALR Type 1, 72 hours, CellTiter-Glo) is above 60 mg/L.
